Results published in PMC3341351, “Down-Regulation of GABAA Receptor via Promiscuity with the Vasoactive Peptide Urotensin II Receptor. Potential Involvement in Astrocyte Plasticity” (PLoS ONE, 2012).
“Also recorded” adds a separate entry of the source. Where no end group is shown, it is not given here.

Assays:
[1] = target: T1, human urotensin II receptor UT, stably expressed in CHO (CHO-UT) (human) (UniProt Q9UKP6)
T1 sequence: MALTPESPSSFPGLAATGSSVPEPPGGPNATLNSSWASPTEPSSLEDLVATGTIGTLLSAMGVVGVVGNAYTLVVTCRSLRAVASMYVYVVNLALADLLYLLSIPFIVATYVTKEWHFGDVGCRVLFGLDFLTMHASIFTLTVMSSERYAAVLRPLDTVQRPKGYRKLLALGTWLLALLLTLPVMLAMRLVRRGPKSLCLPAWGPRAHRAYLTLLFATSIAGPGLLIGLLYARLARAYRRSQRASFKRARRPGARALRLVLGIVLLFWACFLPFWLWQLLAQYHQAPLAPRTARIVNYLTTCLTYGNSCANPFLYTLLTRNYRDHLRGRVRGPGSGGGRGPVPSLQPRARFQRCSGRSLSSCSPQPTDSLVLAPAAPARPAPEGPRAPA

[2] = tested on: α2β3γ2 GABAAR in the absence of UT; assay: Patch-clamp of Iso-evoked current in CHO expressing α2β3γ2 GABAAR without UT; format: cell-based; conditions: DMCM 10^−5 M; hUII and URP 10^−8 M; [Orn^5]-URP and palosuran 10^−6 M; Iso 10^−4 M, 2 s; n = 3–18
Description: (§1) For transfection, cells were trypsinized (0.05%), triturated in HamF-12 containing 10% FBS media, pelleted by centrifugation, resuspended in 100 µl solution V for nucleofection by an Amaxa Nucleofector Device (Köln, Germany; set to program U-016). Experiments were performed on normal CHO or on the stable CHO-UT cells and transiently transfected with combinations of cDNA encoding α2β3γ2, α2β3γ1, α2β1γ2, α2β3γ1, α2β3, β3γ2 (4 µg of cDNA total/transfection) GABAAR subunits. Cells were seeded on 14-mm poly-L-lysine-coated glass bottom insert dishes at 5×10^5 cells in a volume of 0.5 ml/dish. Cells were incubated overnight at 37°C in a humidified incubator (5% CO2) during 16 h before electrophysiological or immunocytochemical experiments.
(§2) GABAA receptor cDNA clones; α2, β1, β3, γ1 and γ2L engineered into the expression vector pCDM8 ([…], β1, γ2) or pcDNA/Amp (β3, γ1), were generously provided by Dr Wingrove (Merk Sharp and Dohme, Harlow, UK). To obtain β3 ^HA or γ2 ^HA epitope-tagged subunits, β3 or γ2 cDNA was amplified and the PCR product was subcloned using the SalI and NotI sites of pCMV-HA (Table S2) after digestion by the same restriction enzymes.
The conventional whole-cell configuration of the patch-clamp technique was used to study the GABA-gated currents in astrocytes and granule neurons, UT stably transfected CHO, CHO-UT, and CHO transiently transfected with diverse variants of UT and GABAAR subunits. After 24-h transfection, cell culture coverslips were placed in a small chamber (1.5 ml) on a stage of a right microscope DMLFSA (Leica, Heidelberg, Germany) and superfused continuously with the following bath solution containing (in mM): NaCl, 150; KCl, 2.5; HEPES, 5; CaCl2, 2; MgCl2, 1; glucose, 10 (pH 7.4 adjusted with NaOH). The patch pipettes were fabricated from 1.5 mm (outer diameter) soft glass tubes on a two-step vertical pipette puller (List-Medical, L/M-3P-A, Darmstadt, Germany). […] ATP and GTP were added to the internal solution used to fill electrode just before recording. All recordings were obtained at RT with cells voltage-clamped at −70 mV. The GABAA receptor agonist isoguvacine was prepared in the extracellular solution and was applied to cells by pneumatic pressure ejection. To prevent desenzitization, isoguvacine was more often ejected during 5 s at 2-min intervals. ATP, GTP, or guanosine 5′-O-(2-thiodiphosphate) (GDPβS) were administered through the patch pipette solution. We investigated the effect of competitive inhibition of GDP-GTP exchange by including GDPβS in the pipette solution (in addition to the normal amount of GTP). For GDPβS and the KIC, immediately following patch rupture, GABA current recordings were performed and the experiment was commenced after an equilibration period of 15 min. […]

human UT [3] = target: T2, human UT (Homo sapiens, UniProt Q9UKP6); assay: Fura-2 calcium imaging ([Ca^2+]c) in CHO-UT; format: cell-based
T2 construct: expressed in transfected cells; host or cells: CHO-K1 electroporated with pIRES-neo2-UT, G-418 selected
T2 sequence (Q9UKP6 1-389): T1 sequence
Description: (§3) CHO-K1 cell lines were obtained from American Type Culture Collection (Manassas, VA, USA). The human UT stable CHO (CHO-UT) was generously provided by Dr Christophe Dubessy (Inserm, Rouen University, France) et generated by CHO electroporation with 20 µg pIRES-neo2-UT DNA and 500 µg sterile sonicated salmon sperm DNA using the EasyJect One electroporation system (Equibio, Angleur, Belgium), followed by repetitive rounds of limiting dilution of cells in G-418 (400 µg/ml) for selection. Normal or stable CHO was grown in Ham-F12 medium supplemented with 10% FBS, 1% antibiotic-antimicotic solution and 2 mM glutamine, at 37°C in a humidified incubator with an atmosphere of 5% CO2. The stable CHO-UT medium was supplemented with the antibiotic G-418 (40 µg/ml).
For cell calcium imaging, Fura-2 AM (5 mM, Molecular Probe; Fisher, Cergy-Pontoise, France) was dissolved in 20% pluronic F-127 (w/v, DMSO) and then added to culture medium at final concentrations of 5 µM and 0.02%, with 2.5 mM probenecid (Sigma-Aldrich) respectively. Cells were incubated in the dye solution for 1 h in an humidified atmosphere (37°C, 5% CO2) and then rinsed in the standard extracellular solution used for patch-clamp experiments. For simultaneous measurements of intracellular calcium and chloride-evoked currents in CHO, patch-clamp electrodes were filled with an internal solution containing : KCl, 140; MgCl2, 4; Fura-2-pentoK, 0.25; HEPES, 10; ATP, 1; GTP, 0.1 (pH 7.4 adjusted with KOH). Fluorescence images were acquired with the right microscope DMLFSA (Leica) equipped with a digital CCD camera Coolsnap HQ (Photometrics, Roper scientific, Evry, France). A high-speed scanning polychromatic light source was used for alternate excitations at wavelenghts of 340 and 380 nm. The fluorescence intensities at both wavelenghts (F340 and F380) were mesured every 500 ms. Image acquisition and analysis were obtained with a MetaFluor/Metamorph Imaging System (Roper scientific). The ratio between the two images was proportional to the [Ca^2+]c in the cell under study. Before an experiment, the bath ground level of fluorescence (attributable to autofluorescence and camera noise) was determined and systematically substracted.

[4] = target: T3, α2β3γ2 GABAAR co-expressed with human UT (Homo sapiens, UniProt Q9UKP6); assay: Patch-clamp of Iso-evoked current in CHO-UT co-expressing α2β3γ2 GABAAR (CHO-UT-GABAAR); format: cell-based
T3 construct: expressed in transfected cells; host or cells: CHO-K1 stably expressing human UT (pIRES-neo2-UT), transiently nucleofected with GABAAR subunit cDNAs
T3 sequence (Q9UKP6 1-389): T1 sequence
Description: as §3, §1, §2
The conventional whole-cell configuration of the patch-clamp technique was used to study the GABA-gated currents in astrocytes and granule neurons, UT stably transfected CHO, CHO-UT, and CHO transiently transfected with diverse variants of UT and GABAAR subunits. After 24-h transfection, cell culture coverslips were placed in a small chamber (1.5 ml) on a stage of a right microscope DMLFSA (Leica, Heidelberg, Germany) and superfused continuously with the following bath solution containing (in mM): NaCl, 150; KCl, 2.5; HEPES, 5; CaCl2, 2; MgCl2, 1; glucose, 10 (pH 7.4 adjusted with NaOH). The patch pipettes were fabricated from 1.5 mm (outer diameter) soft glass tubes on a two-step vertical pipette puller (List-Medical, L/M-3P-A, Darmstadt, Germany). […] ATP and GTP were added to the internal solution used to fill electrode just before recording. All recordings were obtained at RT with cells voltage-clamped at −70 mV. The GABAA receptor agonist isoguvacine was prepared in the extracellular solution and was applied to cells by pneumatic pressure ejection. To prevent desenzitization, isoguvacine was more often ejected during 5 s at 2-min intervals. ATP, GTP, or guanosine 5′-O-(2-thiodiphosphate) (GDPβS) were administered through the patch pipette solution. We investigated the effect of competitive inhibition of GDP-GTP exchange by including GDPβS in the pipette solution (in addition to the normal amount of GTP). For GDPβS and the KIC, immediately following patch rupture, GABA current recordings were performed and the experiment was commenced after an equilibration period of 15 min.
All peptide ligands, inhibitors or allosteric modulators of the GABAA receptor function were applied via gravity through a plastic tubing positioned in the vicinity of the cell body in order to maintain a sustained perfusion. In these conditions, drugs could reach the cell of interest after 30 s of perfusion. Isoguvacine was applied focally by pneumatic pressure ejection from a micropipette.

human UT [5] = target: T2, human UT; conditions: ref [54], [55]; cited from earlier work
[6] = target: T1, human urotensin II receptor UT, stably expressed in CHO (CHO-UT) (human); remark: listed apart in the source

[Orn^5]-URP (peptide)
[Ca^2+]c increase (Fura-2 imaging) in CHO-UT, [Orn^5]-URP 10^-6 M; behaved as a partial agonist and prevented the sustained effect of hUII on [Ca^2+]c [1]: 265%

URP: paralog urotensin II-related peptide sharing the fully conserved C-terminal cyclic CFWKYC core
Effect on Iso-evoked current in the absence of UT [2]: failed to affect the amplitude of the current | Reversibility of [Ca^2+]c increase during washout (human UT [3]; 10^−8 M): totally recovered after 16-min washout; also recorded: recovered to the basal line level | Increase of the amplitude of baseline [Ca^2+]c (human UT [3]; hUII and URP 10^−8 M, [Orn^5]-URP 10^−6 M, mean from 9 to 25 cells): 341% | Inhibition of Iso-evoked current ([4]; 10^−8 M, Iso 10^−4 M, mean ± SEM, hUII n = 54, URP n = 12): 22.9±3.5% | Persistence/reversibility of current inhibition during washout ([4]; 10^−8 M, Iso-evoked current): slightly recovered during washout; also recorded: triggers a reversible inhibition

Cc1cc(NC(=O)NCCN2CCC(O)(Cc3ccccc3)CC2)c2ccccc2n1.O=S(=O)(O)O [palosuran, 1-[2-(4-benzyl-4-hydroxy-piperidin-1-yl)-ethyl]-3-(2-methyl-quinolin-4-yl) -urea sulfate salt]
Effect on Iso-evoked current in the absence of UT [2]: did not modulate the Iso-evoked current | Affinity toward human UT (human UT [5]): high affinity | Effect/profile of antagonist on [Ca^2+]c (human UT [3]; 10^−6 M): failed to evoke a [Ca^2+]c rise | Effect on hUII-induced [Ca^2+]c increase (human UT [3]; antagonist 10^−6 M before and during hUII): completely blocked the hUII-induced [Ca^2+]c increase; also recorded: counteracts the UII-evoked [Ca^2+]c increase | Effect of UT antagonist alone on Iso-evoked current ([4]; 10^−6 M, n = 7–54): mimicked the hUII-induced inhibition of the Iso-evoked current; also recorded: mimics the effect of UII by inhibiting the chloride current | Effect on prolonged/irreversible action of hUII during washout on Iso-evoked current ([4]; antagonist 10^−6 M with hUII): abolished the irreversible action of hUII during washout

ACFWKYCV (also: cyclic CFWKYC core, bridge type not given here) [urotensin II-related peptide]
increase of the amplitude of baseline [Ca^2+]c (Fura-2 imaging) in CHO-UT, URP 10^-8 M in the bath; recovered after 16-min washout [1]: 341% | inhibition of the isoguvacine-evoked chloride current (whole-cell patch clamp) in CHO-UT co-expressing alpha2beta3gamma2 GABAAR, URP 10^-8 M (n = 12) [6]: 22.9%
